± gives the uncertainty stated by the source.
Experiment: protein stability index of a GFP-peptide fusion (yeast GPS) (PSI 1-4); higher = more stable; sorted into four equal gates, so the index is relative within each strain
Outline: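 Plasmids in a pooled yeast library fused tiled 17-residue yeast protein peptides downstream of GFP and also expressed Cherry. Mid-log cultures grown without leucine were sorted into four equal gates by GFP/Cherry fluorescence ratio. Each gate's plasmids were PCR-amplified and Illumina-sequenced, and reads were matched to strains by barcodes. The protein stability index is derived by multiplying each gate's read frequency by its gate number and summing the results.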

| Sequence | protein stability index (doa10∆) | protein stability index (pdr5∆) | protein stability index (san1∆) | protein stability index (ubr1∆) |
| --- | --- | --- | --- | --- |
| IPQDFENEVSDIDVTIV [ESC2] | 2.96 ± 0.096 | 2.34 ± 0.092 | 2.77 ± 0.11 | 2.42 ± 0.054 |
| TKDIFPLQNIHVRKVKL [RPS1A] | 2.4 ± 0.084 | 2.81 ± 0.097 | 2.6 ± 0.072 | 2.84 ± 0.09 |
| SIFAMGLCGAGTNNARL [RPN1] | 2.44 ± 0.058 | 1.27 ± 0.043 | 1.24 ± 0.094 | 1.12 ± 0.039 |
| ARIALRHLEKEGIIKPI [RPS25A] | 2.98 ± 0.092 | 3.37 ± 0.16 | 3.06 ± 0.094 | 3.12 ± 0.085 |
| FEKVGSHLYKARLDGHD [RPN14] | 2.92 ± 0.26 | 3.51 ± 0.19 |  | 3.31 ± 0.14 |
| AITADLGSSEAENLLQL [YGL172W/NUP49] |  | 1.31 ± 0.21 |  |  |
| TKSKNKTLIGLQGIVIW [POP4] | 2.93 ± 0.05 | 2.76 ± 0.051 | 2.76 ± 0.044 | 2.73 ± 0.034 |
| NSFYYTSLLYLSTLEPS [RPN9] | 1.82 ± 0.05 | 1.56 ± 0.046 | 1.47 ± 0.1 | 1.77 ± 0.041 |
| DDDAVRREVQIQLQEFL [NSL1] | 3.28 ± 0.093 | 3.27 ± 0.1 | 3.36 ± 0.073 | 3.45 ± 0.089 |
| VKLQMIKFGGLIIQKIP [ECM29] | 2.48 ± 0.059 | 1.89 ± 0.065 | 1.48 ± 0.07 | 2.37 ± 0.049 |
| TFAKSKNYSRPSTAIHT [SIR4] | 2.03 ± 0.099 | 1.79 ± 0.066 | 1.53 ± 0.1 | 2.15 ± 0.05 |
| EGGEAEFIFGTYNMIDA [ARP7] | 2.79 ± 0.059 | 2.66 ± 0.055 | 2.52 ± 0.054 | 2.83 ± 0.045 |
| VQDCRYSLASVTLKGAK [POP1] | 2.35 ± 0.041 | 2.68 ± 0.051 | 2.61 ± 0.04 | 2.56 ± 0.049 |
| QEHNIQDSNVMPGSQIN [SNF2] | 3.11 ± 0.074 | 3.11 ± 0.057 | 2.68 ± 0.07 | 3.31 ± 0.062 |
| GTYIQERNPSQRPQRRY [RPS10B] | 3.01 ± 0.052 | 3.1 ± 0.042 | 3.09 ± 0.033 | 3.23 ± 0.036 |
| ALPRKLRRRTASHNVRR [POP1] | 2.91 ± 0.058 | 3.06 ± 0.06 | 2.79 ± 0.056 | 2.74 ± 0.039 |
| EQWLRQFEVSDDEKNDK [SNF2] | 3.41 ± 0.065 | 3.21 ± 0.059 | 3.17 ± 0.053 | 3.09 ± 0.046 |
| AIITDDLDTVLKKDIES [SRP72] | 1.99 ± 0.047 | 2.32 ± 0.047 | 2.43 ± 0.061 | 2.43 ± 0.049 |
| FPFVLKVDNDLRIELQS [SRB8] | 2.98 ± 0.12 | 3.05 ± 0.1 | 2.61 ± 0.098 | 3.31 ± 0.14 |
| AFGLGAIMSKSSLEELL [ECM29] | 1.83 ± 0.089 | 2.07 ± 0.074 | 1.71 ± 0.12 | 2.06 ± 0.052 |
| NATVVDSFKYEPLAPGN [YLR335W/NUP2] | 2.95 ± 0.057 | 3.02 ± 0.054 | 2.98 ± 0.053 | 2.94 ± 0.051 |
| KSIIGKLTAERANLRKY [POP1] | 2.72 ± 0.059 | 2.92 ± 0.081 | 2.8 ± 0.07 | 2.6 ± 0.074 |
| VENGTTSIGIKCNDGVV [PRE10] | 2.14 ± 0.11 | 2.1 ± 0.089 | 1.35 ± 0.21 | 3.31 ± 0.22 |
| ACHVEVPYVLMGQIATF [COB] | 2.08 ± 0.092 | 1.98 ± 0.088 | 1.87 ± 0.12 | 1.94 ± 0.066 |
| LLSLISTTAALQSISSL [RPN7] | 1.94 ± 0.053 | 1.95 ± 0.05 | 1.77 ± 0.075 | 2.24 ± 0.049 |
| PSKKLKTEDGFVIPALP [RPC82] | 3.08 ± 0.13 | 3.19 ± 0.089 | 2.93 ± 0.083 | 3.08 ± 0.065 |
| RPLKLERGFACIPLVGI [FAS1] | 1.69 ± 0.067 | 1.73 ± 0.048 | 1.51 ± 0.092 | 1.69 ± 0.048 |

| Sequence | protein stability index (doa10∆) | protein stability index (pdr5∆) | protein stability index (san1∆) | protein stability index (ubr1∆) |
| --- | --- | --- | --- | --- |
| NIDSLKFNELVKLMKNI [BRR2] | 1.37 ± 0.04 | 1.63 ± 0.067 | 1.5 ± 0.11 | 1.8 ± 0.052 |
| VAQGIMNAGGRNVTIQL [RPN2] |  | 2.61 ± 0.21 |  |  |
| LGLLTPEVVELCQKSPV [FAS2] | 2.28 ± 0.071 | 2.73 ± 0.066 | 2.11 ± 0.12 | 2.93 ± 0.081 |
| CGAGVFLANHKDRLYCG [RPS31] | 2.19 ± 0.097 | 1.46 ± 0.16 | 1.06 ± 0.21 | 2.5 ± 0.2 |
| LSHGSLEHVLLVPTASF [FAS1] | 1.24 ± 0.039 | 1.4 ± 0.043 | 1.33 ± 0.079 | 1.19 ± 0.029 |
| SQKQTLIKKPLTVFYAI [SSN3] | 2.1 ± 0.089 | 2.13 ± 0.061 | 2.12 ± 0.085 | 2.01 ± 0.057 |
| IKIEDFVDDMLRDYRFE [SNF5] | 3 ± 0.068 | 3.16 ± 0.073 | 3.1 ± 0.067 | 2.97 ± 0.078 |
| LKYLDDLKAQFQELDSK [RPN9] | 3.13 ± 0.097 | 3.23 ± 0.069 | 3.12 ± 0.075 | 3.2 ± 0.064 |
| VSSESSDEAIIPVNKRR [SIR3] | 3.31 ± 0.15 | 2.98 ± 0.12 | 3.02 ± 0.1 | 3.22 ± 0.082 |
| SFLESVIRDSVTYTEHA [HHF1] | 2.82 ± 0.077 | 2.29 ± 0.064 | 2.17 ± 0.058 | 2.47 ± 0.049 |
| NNPQVVNAITVAQQQVQ [SNF5] | 1.69 ± 0.049 | 1.78 ± 0.047 | 1.42 ± 0.075 | 1.99 ± 0.035 |
| YATQVKTDNTVDKFDFY [RPT3] | 2.39 ± 0.05 | 2.63 ± 0.055 | 2.49 ± 0.052 | 2.62 ± 0.042 |
| SSSMDMQANTNALRRNL [SSN3] | 2.63 ± 0.055 | 2.33 ± 0.05 | 3.13 ± 0.046 | 2.28 ± 0.043 |
| VFLRNRLKYALNGREVK [RPS4A] | 2.93 ± 0.099 | 2.82 ± 0.12 | 2.69 ± 0.086 | 3.06 ± 0.095 |
| NAEKTGKRQVLLRPSSK [RPS22B] | 3.14 ± 0.064 | 2.93 ± 0.055 | 3.24 ± 0.046 | 2.85 ± 0.038 |
| RGEIREIEQVCKQVHDK [MED7] | 3.06 ± 0.077 | 3.27 ± 0.046 | 2.8 ± 0.062 | 2.87 ± 0.073 |
| SVAPTKQREIVKAFLSI [NUT1] | 2.1 ± 0.11 | 1.94 ± 0.073 | 2.41 ± 0.13 | 2.04 ± 0.063 |
| NIYDQLRNKLIESNKLA [RRP6] | 2.34 ± 0.073 | 2.45 ± 0.084 | 1.9 ± 0.09 | 2.22 ± 0.073 |
| ILTSLMRSKLEKLTLVT [CSN9] | 2.42 ± 0.081 | 3.03 ± 0.064 | 2.87 ± 0.06 | 2.67 ± 0.059 |
| KHITVRLTAKRLIEHDP [SRP14] | 2.35 ± 0.057 | 2.52 ± 0.044 | 2.51 ± 0.064 | 2.65 ± 0.035 |
| KAEFSKEMTLQKNMNDL [YIL149C/MLP2] | 3.21 ± 0.053 | 3.3 ± 0.086 | 3.23 ± 0.09 | 3.07 ± 0.067 |
| SLVIIILVKRYSIEMKP [ECM29] | 1.15 ± 0.049 | 1.38 ± 0.04 | 1.59 ± 0.069 | 2.04 ± 0.044 |
| QRESQIGAAELNENARE [SNF12] | 3.22 ± 0.075 | 3.19 ± 0.063 | 2.93 ± 0.12 | 3.35 ± 0.044 |
| PSVGVKTMKTFVIHIQE [RPB5] | 2.83 ± 0.087 | 2.82 ± 0.13 | 2.47 ± 0.13 | 2.76 ± 0.1 |
| CARFLGNRGFSIGINDV [RPO31] | 2.32 ± 0.21 |  |  | 2.88 ± 0.21 |
| EGLCIVAGSKCWAVRAD [RRP45] | 2.38 ± 0.073 | 2.43 ± 0.071 | 2.53 ± 0.079 | 2.57 ± 0.07 |

Source: the supplement of paper PMC9732359
